Assay results published in PMC11488661 (Science immunology, 2024).
Where a chain is given by its changes, count along the chain named.

B1: g5-D78-13_CLK19 (antibody, V domains shown)
VH: QVQLVQSGAEVKKPGASVKVSCKASGYIFTDYNMHWVRQAPGQGLEWMGWINPSFGGRNIVQKFQGRVTMTRDTSISTAYMELSGLRSDDTAVYFCTPVLAPFRWRFAYWGQGTLVTVSS
VL: DIQMTQSPSSLSASVGDRVTITCQASQDINYLNWYQQKPGKAPKLLIYDASNLETGVPSRFSGSGSGTDFTFTISSLQPEDIATYYCQQYAAFGPGTKVNIK
B2: g5-D78-20_CLK19 (antibody, V domains shown)
VH: B1 VH with G49A, S54R, F55S, Y80F
VL: B1 VL with D81N, N100D
B3: g5-D78-15_CLK19 (antibody, V domains shown)
VH: B1 VH with R106P, A108V
VL: B1 VL with T71S, N100D
B4: g28v2-D58-5_CLK19 (antibody, V domains shown)
VH: QVQLVQSGAEVKKPGASVKVSCKASGYTFTGYFIHWVRQAPGQGLEWMGWINPNRGGTNYAQKFQGRVTMTRDTSTSTAYMDLSRLRSDDTAMYYCTVVLAAYRWPFAYWGQGTLVTVSS
VL: DIRVTQSPSSLSASVGDRVTITCQANQDIRNYLNWYQQKPGKAPKLLIYDVSKLETGVPSRFSGSGSGTDFTFTISSLQSEDIATYYCQQYETFGPGTKVDIK
B5: g28v2-D46-5_CLK19 (antibody, V domains shown)
VH: QVQLLQSGDEVKKPGASVRVSCKASGYTFTAYYLHWVRQAPGQGLEWMGWLYPQSGGTNYAQRFQGRVTMTRDTSISTAFMELSRLRSDDTAVYYCAPVLADYRWRFAYWGQGTLVTVSS
VL: DIQMTQSPSSLSASVGDRVTITCQASQDINNYLNWYQQKPGKAPKLLIYDTTNLEIGVPSRFSGSGSGTDFTFTISSLQPEDIATYYCQQYAAFGPGTKVDIK
B6: g28v2-D58-11_CLK09 (antibody, V domains shown)
VH: QVQLVQSGAEVKKPGASVKVSCKASGYTFTDYHIHWVRQAPGQGLEWMGWINPRGGGTNYAQKFQGRVTMTRDTSISTAYMDLSRLRSDDTAVYYCTPVLATFRWRFDYWGQGTLVTVSS
VL: B5 VL with N30R, T51A, T52S, L54F, I56T, A92E, A93F, P96G, D101E
B7: g5-D78-1_CLK19 (antibody, V domains shown)
VH: QVQLVQSGAEVKKPGASVKVSCKASGYTFTGYFLHWVRQAPGQGLEWMGWINPNRGGVNYAQKFQGRVTMTRDTSINTAYMELSRLRSDDSAVYYCTPVLTNFRWRFDFWGQGTLVTVSS
VL: B5 VL with N30K, K42T, T52S, I56T, A92E, A93T
B8: g28v2-D58-8_CLK09 (antibody, V domains shown)
VH: QVQLVQSGAEVKKPGASVKVSCKASGYTFTDYYLHWVRQAPGQGLEWMGWINPSTGGRNHARQFQGRVAMTRDTSISTAYMELSRLRSDDTAVYFCTPVLATFRWRFVYWGQGTLVTVSS
VL: B5 VL with D28G, I29V, N30S, T51V, T52S, I56T, A92E, A93F, P96G, D101E
B9: g28v2-D58-6_CLK19 (antibody, V domains shown)
VH: B6 VH with D31G, H33Y, V37F, I51M, R54S, G55Y, S77N, D82E, T102A, F103Y
VL: B4 VL with R3Q, V4M, D28A, K53N
B10: g28v2-D46-9_CLK19 (antibody, V domains shown)
VH: QVQLVQSGAEVKKPGASVRVSCKASGYTFTGYYMHWVRQAPGQGLEWMGWINPNNGGVNYAHKFQGRVTMTRDTSISTAYMELSRLRSDDTAVYYCTTALAGHGWRFDYWGQGTLVTVSS
VL: B5 VL with S14Y, N30S, K39I, T51A, T52S, I56A, G66R, T69A, A93T
B11: g28v2-D58-3_CLK09 (antibody, V domains shown)
VH: QVQLVQSGADVRKPGASVKVSCKASGYTFTDYYVHWVRQAPGQGLEWMGWINPNRGGTNYPQKFQGRVTMTRDTSISTAYMELSRLRSDDTAVYYCALWFGEKKTFDIWGQGTMVTVSS
VL: B5 VL with D28G, I29V, N30S, T51V, T52S, I56T, A92E, A93F, P96G, D101E
B12: g5-D78-2_CLK19 (antibody, V domains shown)
VH: B7 VH with A24T, R55S, V58I, S91T, R106P, D108A
VL: B5 VL with N30K, K42T, T52S, I56T, S65R, A92E, A93T
B13: g28v2-D46-6_CLK09 (antibody, V domains shown)
VH: QVQLVQSGAEVKKPGASVKVSCKASGYTFTDYYMHWVRQAPGQGPEWMGWLNPNNGGRNFARKFQDRVTVTRDTSLSTAYMELSRLRSDDTAVYYCARVGEKWTFDIWGQGTMVTVSS
VL: B5 VL with D17G, N30S, T51V, T52S, I56T, A92E, A93F, P96G, D101E
B14: g5-D78-21_CLK19 (antibody, V domains shown)
VH: B7 VH with A24T, R55S, V58I, S91T, R106P, D108A
VL: B5 VL with N30K, K42T, T52S, I56T, A92E, A93T
B15: g28v2-D58-1_CLK09 (antibody, V domains shown)
VH: QIQLVQSGAEVKKPGASVKVSCKASGYTFTDYFIHWVRQAPGQDLVWMGWINPIYGGTNYARSFQGRVTMTRDTSISTAFLELNRLRSDDTAVYYCATDLADNRWRFDYWGQGTLVTVSS
VL: B5 VL with N30T, N31S, Y32F, T51A, T52S, I56T, A92E, A93F, P96G, D101E
B16: g28v2-D46-7_CLK09 (antibody, V domains shown)
VH: B6 VH with D31G, I34M, L45P, R54N, D82E, Y94F, T97A, T102D, F103Y, R104G
VL: DIQMTQSPSSLSASVGGRVTITCQASQDISSYLNWYQQKPGKAPKLLIYDASNLEAGVPSRFSGSGSGTDFAFTISSLQPEDIATYYCQQYEFFGGGTKVEIK
B17: g28v2-D58-9_CLK09 (antibody, V domains shown)
VH: QVQLVQSGAEVKKPGASVKVSCKASGNTFTGNYIHWIRQAPGQGLEWMGWLNPNSGGTNYAQQLQGRVTMTRDTSISTAYMELRRLRSDDTAVYYCARVEGLWFGKEWAFDIWGQGTMVTVSS
VL: B16 VL with G17D, D28G, I29V, S31N, P44L, A51V, A56T, A72T
B18: g28v2-D46-8_CLK09 (antibody, V domains shown)
VH: B10 VH with G31D, V58I
VL: B16 VL with D28G, S31T, A51V, A56T, A72T, I83F
B19: g28v2-D58-7_CLK09 (antibody, V domains shown)
VH: B6 VH with D31G, H33Y, I51M, R54T, S77N, D82E, T102D, F103Y
VL: B16 VL with S14F, G17D, D28G, I29V, S31K, A56T, A72T
B20: g28v2-D58-10_CLK19 (antibody, V domains shown)
VH: B6 VH with I34M
VL: not shown
B21: g28v2-D58-4_CLK09 (antibody, V domains shown)
VH: B11 VH with D10E, R12K, T30I, D31G, V34I
VL: B16 VL with G17D, D28G, I29V, S31N, Y36F, P44L, A51V, A56T, A72T
B22: g28v2-D58-2_CLK09 (antibody, V domains shown)
VH: B15 VH with I34L, V46E, I54T, Y55F, S63N, F80Y, D102S
VL: B16 VL with I2L, G17D, S31N, D50G, A56T, A72T, T85I
B23: g5-D78-19_CLK09 (antibody, V domains shown)
VH: QVQLVQSGAEVKKPGVSVKVSCKASGYTFNGYYMHWVRQAPGQGLEWMGWINPNNGGMNVARRFQDRVTLTRDTSFTTAYMELSRLRSDDSAVYYCARVGGLWFGEKWTFDIWGQGTMVTVSS
VL: B16 VL with G17D, A25T, S31T, Y32F, K39R, D50G, E55A, A56T, A72T
B24: g5-D78-10_CLK19 (antibody, V domains shown)
VH: QVQLVQSGAEVKKPGASVKVSCKASGYTFTGYFIHWVRQAPGQGLEWMGWINPSYGAVNYARKFQGRVTMTRDTSISTAYMELQRLRSDDTAIYHCTIALAGYRWGFDYWGQGALVTVSS
VL: DIQMTQSPSSLSAFVGDRVTITCQARLDIRYSLNWYQQKPGKAPNLLIYDASNLETGVPSRFSGSGSGTNFTFTISTLQPEDIATYYCQQYETFGPGTKVHIK
B25: g5-D78-18_CLK19 (antibody, V domains shown)
VH: B24 VH with F33Y, S54T, R85S
VL: B24 VL with H101D
B26: g5-D78-14_CLK19 (antibody, V domains shown)
VH: B24 VH with F33Y, S77T, H95Y
VL: B24 VL with S76N, H101D
B27: g5-D78-16_CLK19 (antibody, V domains shown)
VH: B24 VH with F33Y
VL: B24 VL with I102F
B28: g5-D78-12_CLK19 (antibody, V domains shown)
VH: B24 VH with F33Y
VL: B24 VL with S76N, H101D

Target: eOD-GT8 (monomeric ligand) (Human immunodeficiency virus 1, …)

Row | Binder | Kd
1 | B1 | 4.9 nM
2 | B2 | 3.4 nM
3 | B3 | 0.92 nM
4 | B4 | 39 nM
5 | B5 | 19.7 nM
6 | B6 | 3.65 nM
7 | B7 | 8 nM
8 | B8 | 0.444 nM
9 | B9 | 1.06 nM
10 | B10 | 0.0475 nM
11 | B11 | 1.38 nM
12 | B12 | 0.42 nM
13 | B13 | 0.211 nM
14 | B14 | 0.29 nM
15 | B15 | 20.7 nM
16 | B16 | 57.3 nM
17 | B17 | 0.0455 nM
18 | B18 | 0.303 nM
19 | B19 | 0.512 nM
20 | B20 | 3.69 nM
21 | B21 | 3.48 nM
22 | B22 | 1.55 nM
23 | B23 | 0.2 nM
24 | B24 | 38 nM
25 | B25 | 12 nM
26 | B26 | 11 nM
27 | B27 | 12 nM
28 | B28 | 12 nM
